# Data taken from patent US20220315908A1, “NOVEL GARDNERELLA ENDOLYSINS AND USES THEREOF” (priority 2019, published 2022).
# Positions count from the first letter of the chain named.
# B1: H1B1: natural Gardnerella prophage endolysin from strain HMP9231 (protein)
# chain: MSKKGIDVSEWQGDIDFNAVKASGVEFVIIRAGYGIGCKDKWFEQNYRKAKTAGLDVGAYWYSYANSGFEAAEEAQSLMNMLSGKSFEYPVYFDLEEKSQLNRGRAFCDSLITSFCNKLEACGYYAGFYTSLSTANNLVSAHVRNRYALWIAQWNTHCNYQGSYGLWQYSSNGSVPGVAGRVDMDYAYVDYPSIIKNAGLNGCKNGGSDQAARTSSIDEVAREVINGAWGNGSTRKQRLTSAGYDYASVQNKVNELLGVKACRKSVDELAREVIRGAWGNGSTRKQRLAQAGYDYDTVQKRVNELL
# modifications: EL1_strain_HMP9231
# notes: natural Gardnerella prophage endolysin from strain HMP9231
# B2: H2B2: natural Gardnerella prophage endolysin from strain Gv18-4 (protein)
# chain: MSKRGIDVSEWQGDIDFNAVKASGVEFVIIRAGYGIGCKDKWFEQNYRKAKTCGLDVGAYWYSYANSGFEAAEEAQSCVNMLSGKSFEYPVYFDLEEKSQLNRGRAFCDSLITGFCNKLESCGYYAGFYTSLSTANNLVSAHVRNRYALWIAQWNTHCSYQGSYGLWQYSSSGSVPGVAGRVDMDYAYVDYPSIIKNVGLNGCKNGGSDQAARTSSIDEVAREVINGAWGNGNERKQRLTSAGYDYASVQNKVNELLGVKACRKSVDEIAREVIRGTWGNGSTRKQRLTQAGYDYDTVQKRVNELL
# modifications: EL2_strain_Gv18-4
# B3: H3B3: natural Gardnerella prophage endolysin from strain Gv18-4 (protein)
# chain: MSKKGIDVSVWQGDIDFNSVKASGVEFVIIRAGYGIGHKDKWFEENYRKAKTAGLDVGSYWYSYASSAGEASEEAQSCVNILSGKSFEYPIYFDLEEKSQLNRGRDFCDSLITSFCNKLEACGYYAGFYTSLSVANNLVSSHVRDRYALWIAQWNTHCSYQGSYGLWQYSSSGSVNGIAGRVDMDYAYVDYPSVIKNAGLNGYQNGGSYTAPQTSSIDEVAREVINGDWGNGNDRKNRLISAGYDYASVQNKVNELLGVKAYRKSVDELAREVIRGTWGNGSMRKHRLTQAGYDYDAVQKRVNELL
# modifications: EL3_strain_Gv18-4
# B4: H4B4: natural Gardnerella prophage endolysin from strain Gv5-1 (protein)
# chain: MSKKGIDVSEWQGDIDFNAVKASGVEFVIIRAGYGIGCKDKWFEQNYRKAKTCGLDVGAYWYSYANSGFEAAEEAQSCVNMLSGKSFEYPVYFDLEEKSQLNRGRAFCDSLITSFCSKLETYGYYAGFYTSLSVVNNLVSAHVRDRYALWIAQWNTHCSYQGSYGLWQYSSSGSVPGVAGRVDMDYAYVDYPSIIKNVGLNGCKNGGSDQATRTSSIDEVAREVINGAWGNGNERKQRLTSAGYDYASVQNKVNKLLGVKAYRKSVDELAREVIRGTWGNGNERKQRLAQAGYDYDTVQKRVNELL
# modifications: EL4_strain_Gv5-1
# B5: H5B5: natural Gardnerella prophage endolysin from strain JCP7276 (protein)
# chain: MSKKGIDVSEWQGDIDFNAVKASGVEFVIIRAGYGIGCKDKWFEQNYRKAKTAGLDVGAYWYSYANSSSEAAEEAQSCANMLSGKSFEYPVYFDLEEKSQLNRGRAFCDSLITGFCSKLEACGYYAGFYTSLSTANNLVSAHVRNRYALWIAQWNTHCSYQGSYGLWQYSSNGSVPGVAGRVDMDYAYKDYPSIIKNAGLNGCKNGGSDQAARTSSIDEVAREVINGAWGNGNERKQRLTQAGYDYTSVQNKVNKLLGVKACRKSVDELAREVIRGTWGNGNERKNRLTQAGYDYDTVQKRVNELL
# modifications: EL5_strain_JCP7276
# notes: natural Gardnerella prophage endolysin from strain JCP7276
# B6: H7B7: natural Gardnerella prophage endolysin from strain AMD (protein)
# chain: B5 chain with S68A, G114S, A121T, C122Y, A141S, N172S
# modifications: EL7_strain_AMD
# notes: natural Gardnerella prophage endolysin from strain AMD
# B7: H10B10: natural Gardnerella prophage endolysin from strain G30-4 (protein)
# chain: MSKRGIDVSVWQGDIDFNAVKASGVEFVIIRAGYGIGHKDKWFEENYRKAKTVGLDVGAYWYSYASSAGEASEEAQSCVNILSGKSFEYPVYFDLEEKSQLNRGRDFCDSLITSFCNKLEACGYYAGFYTSLSVANNLVSSHVRDRYALWIAQWNTHCSYQGSYGLWQYSSSGSVNGIAGRVDMDYAYVDYPSVIKNAGLNGYKNGGSYTAPQISSIDEVAREVINGDWGNGNERKQRLTSAGYDYASVQNKVNELLGVKAYRKSVDELAREVIRGTWGNGSTRKQRLTQAGYDYNAVQKRVNELL
# modifications: EL10_strain_G30-4
# B8: H11B11: natural Gardnerella prophage endolysin from strain JCP8017A (protein)
# chain: MSKRGIDVSVWQGDIDFNAVKASGVEFVIIRAGYGIGHKDKWFEQNYRKAKTTGLDVGAYWYSYASSAGEAAEEAQSCVNILSGKSFEYPVYFDLEEKSQLNRGRDFCDSLITSFCNKLETYGYYAGFYTSLSVANNLVSSHVRDRYALWIAQWNTHCDYQGSYGLWQYSSSGSVDGIAGRVDMDYTYVDYPSVIKKAGLNGYKNGGSYTAPQTSSIDEVAREVINGDWGNGNERKNRLTSAGYDYTSVQNKVNELLGVKAYRKSVDELAREVIRGTWGNGSTRKQRLTQAGYDYDAVQKRVNELL
# modifications: EL11_strain_JCP8017A
# notes: natural Gardnerella prophage endolysin from strain JCP8017A
# B9: H12B12: natural Gardnerella prophage endolysin from strain 3549624 (protein)
# chain: MSKKGIDVSVWQGDIDFNAVKASGVEFVIIRAGYGIGHKDKWFEENYRKAKTAGLDVGSYWYSYASSAGEVALEAQSCVNILSGKSFEYPVYFDLEEKSQLNRGRDFCDSLITSFCNKLEACGYYAGFYTSLSVANNLVSSHVRDRYALWIAQWNTHCSYQGSYGLWQYSSSGSVNGIAGRVDMDYAYVDYPSVIKNAGLNGYQNGGSYTAPQTSSIDEVAREVINGDWGNGIERKNRLTSAGYDYTSVQNKVNELLGVKAYRKSVDELAREVIRGTWGNGKTRKQRLTQAGYDYNAVQKRVNELL
# modifications: EL12_strain_3549624_non-prophage
# System: G. leopoldii strain Gv_11
# Assay: Quantitative reduction in viable CFU assay in bacterial suspension
# Type: cell-based, Gardnerella leopoldii
# Conditions: 5 hours, pH 5.0, anaerobic, 10 ul endolysin (0.2 mg/ml where possible) + 90 ul 5e7 CFU/ml, average of triplicate
# Experimental: The lysis activity on the four main species of Gardnerella of 91 constructs (natural and domain-swapped endolysins) was quantitatively assessed using the method described in Reference Example 2. Briefly, 90 ul 5e7 CFU/ml of the indicated strain were incubated for 5 hours at pH 5.0 under anaerobic conditions with 10 ul endolysin (concentration adjusted to 0.2 mg/ml where possible, see Table 4).
# The results are shown in FIGS. 8A to 8D together with Tables 5A to 5C. In FIGS. 8A to 8D, the logarithmic Y axis depicts the count of surviving cells. The dotted line indicates the limit of detection (LOD) given by plating of 2 ul of the reaction mix (500 CFU/ml). Each combination of the natural 10 H-domains and the natural 9 B-regions was assessed, including the natural endolysins (H1B1, H2B2, H3B3, etc.), plus H6B6. […] The activity of each construct was measured on each of the 4 main Gardnerella species G. vaginalis sensu stricto, G. leopoldii, G. piotii, and G. swidsinkii. All conditions have been measured in triplicate. The survival after 5 hours incubation at pH 5.0 under anaerobic conditions with endolysins vs. buffer was measured by quantitative plating. The values indicate the log 10 of the ratio of surviving CFU for treated vs. untreated cells. The average of the triplicate measurements is used. In tables 5A and 5B, high negative log 10 values, e.g. −6.7, −5.5, −4.8 etc. are associated with high enzymatic activity, while log 10 values closer to zero or even positive log 10 values are associated with low or no enzymatic activity. […] Inversely, a reduction value of −3.7 means a 10^3.7-fold (=5012-fold) reduction of viable CFU in treated sample vs. untreated control.
# Gardnerella cells were recovered from cryo stock by plating on Chocolate Agar plates (Beckton Dickinson) and incubating for 48 h at 37° C. under anaerobic conditions. For Lactobacilli, BD Schaedler/5% sheep blood agar plates were used instead. Colonies were scraped from the plate, resuspended in Hardy Broth or NYC-III-HS-5.0 at the pH as indicated, and the suspension adjusted to OD (610 or 620 nm as indicated) 0.1. It has to be noted that two Tecan Microplate readers, having respectively a 610 nm or 620 nm filter, have been used interchangeably in the experiments. Although it doesn't make any difference for the experiments, the exact wavelength used is specified in each example. If not stated otherwise, 90 μl cell suspension was mixed with 10 μl endolysin solution, for the different species/endolysin combinations, in 384-well plates. OD(610-620 nm as indicated) was measured at the beginning of the reaction and at the end, either as two measurement points or as a continuous kinetic in a Tecan F200 Microplate reader. The reactions were incubated for 5 hours (or otherwise the time indicated) at 37° C. under anaerobic, micro-aerophilic or aerobic conditions as indicated. Anaerobic conditions intend that oxygen was fully depleted from the container in which the bacteria are incubated (Sigma-Aldrich anaerobic jar or sealable lunch box) with an anaerobic sachet, and the lack of oxygen was confirmed with an anaerobic indicator inside the container. Where micro-aerophilic conditions are indicated, the candle-in-a-jar method was used (tea candle lit in an appropriate sealable container, which reduces oxygen levels until the flame dies out). Then each well was diluted in 5 steps (10^−1 to 10^−5) using 96-U-well bottom plates, and 2 μl of each dilution of each reaction mix are plated on BD Chocolate agar plates or BD Schaedler/5% sheep blood agar plates for Gardnerella and Lactobacilli, respectively, for detecting and quantifying surviving CFU. Detection plates were incubated at 37° C. for 48 hours under anaerobic conditions.
row,Molecule,log 10 of the ratio of surviving CFU for treated vs. untreated cells [log 10]
1,B1,−1.3
2,B2,−1.1
3,B3,−2.0
4,B4,−0.5
5,B5,0.3
6,B6,−2.1
7,B7,−1.6
8,B8,−1.6
9,B9,−1.0
